# According to US12173330B2, “Method for producing hydroxy-L-pipecolic acid” (API CORPORATION, priority 2015, dated 2024):
# Legend:
# [1] = substrate: O=C(O)[C@@H]1CCCN1; test: purified protein, by the assay type; details: other: substrate: L-proline, 20 mmol/L 2-oxoglutaric acid, 30° C.
# [2] = substrate: O=C(O)[C@@H]1CCCCN1; test: purified protein, by the assay type; details: other: substrate: L-pipecolic acid, 20 mmol/L 2-oxoglutaric acid, 30° C.
Protein,Km [1],Vmax [1],Km [2],Vmax [2]
"Catenulispora acidiphila NBRC102108 L-proline cis-4-hydroxylase CaPH, SEQ ID NO: 6 (Catenulispora acidiphila DSM 44928) (protein) MRTQYVAALELDEGRLAKDLETSASFNYSEAYSNYLIGGPWKSAMLYSAGGDAGDGLLTDYDYRQSSDFTDYGRQMPYLQELISTSVDLSRLTFVRLARFAKSVIVPHRDFLELEEIPEDKRSAHRLHIPLATHEECFFSEDNVVYRMRAGELWYFDASRIHSVVSFAEEPRIHLIFDFADRPGAGSLVTVPGEPEGAGVPAASAVDRPQLSDAERAALARLADVLTMDTFSEIFSVLVKKHFRRDGGEHFVWDTLTALARACPDPAVLPHTQELRRYFTLERPSGSGQA",8870 µM,0.02 U/mg-protein,–,–
"Sinorhizobium meliloti 1021 L-proline cis-4-hydroxylase SmPH, SEQ ID NO: 10 (Sinorhizobium meliloti 1021) (protein) MSTHFLGKVKFDEARLAEDLSTLEVAEFSSAYSDFACGKWEACVLRNRTGMQEEDIVVSHNAPALATPLSKSLPYLNELVETHFDCSAVRYTRIVRVSENACIIPHSDYLELDETFTRLHLVLDTNSGCANTEEDKIFHMGLGEIWFLDAMLPHSAACFSKTPRLHLMIDFEATAFPESFLRNVEQPVTTRDMVDPRKELTDEVIEGILGFSIIISEANYREIVSILAKLHFFYKADCRSMYDWLKEICKRRGDPALIEKTASLERFFLGHRERGEVMTY",580 µM,–,310 µM,0.03 U/mg-protein
"Xenorhabdus doucetiae FRM16 L-proline cis-4-hydroxylase XdPH, SEQ ID NO: 8 (Xenorhabdus doucetiae) (protein) MMSAKLLASIELNQEQIEHDLNIVGSEILDVAYSEYACGNWGTITLWNHSGDAGDQTSREYVGQARPTELGQQLDCINQLIRNNFNISLIKSVRIFRSYNGGAIYPHIDYLEFNQGFKRVHLVLKSDRSCLNSEENTVYHMLPGEVWFVDGHSAHSAMSLSRVGKYSLVLDFDSGAKFEDLYSESHTLCVDNLEPDIIHDRQPLPTSLRDSLAHIAEHADEFNIQSILFLATRFHFSYAVSIREYFQLLDECFSRNPYKSVRERYEALKDILVRSGYTSHNVNHFNSLSGVTIG",310 µM,–,300 µM,1.14 U/mg-protein
